Assay results reported in article PMC8188256 (Data in Brief, 2021).
Values joined by “and” are separate entries in the source; they are usually repeats but may differ in a detail not shown here. Equal entries are not always repeated.

Key:
[1] = target: DnaKLS (E. coli) (UniProt P0A6Y8); experiment: SPR
[2] = target: DnaK (Escherichia coli, UniProt P0A6Y8); experiment: biochemical
[3] = target: PfHsp70-zLS (Plasmodium falciparum); experiment: SPR
[4] = target: Plasmodium falciparum Hsp110 (PfHsp70-z) (Plasmodium falciparum); experiment: SPR
[5] = target: PfHsp70–1LS (Plasmodium falciparum); experiment: SPR
[6] = target: PfHsp70–1 (Plasmodium falciparum); experiment: SPR

Chain of DnaJ (P08622 whole entry): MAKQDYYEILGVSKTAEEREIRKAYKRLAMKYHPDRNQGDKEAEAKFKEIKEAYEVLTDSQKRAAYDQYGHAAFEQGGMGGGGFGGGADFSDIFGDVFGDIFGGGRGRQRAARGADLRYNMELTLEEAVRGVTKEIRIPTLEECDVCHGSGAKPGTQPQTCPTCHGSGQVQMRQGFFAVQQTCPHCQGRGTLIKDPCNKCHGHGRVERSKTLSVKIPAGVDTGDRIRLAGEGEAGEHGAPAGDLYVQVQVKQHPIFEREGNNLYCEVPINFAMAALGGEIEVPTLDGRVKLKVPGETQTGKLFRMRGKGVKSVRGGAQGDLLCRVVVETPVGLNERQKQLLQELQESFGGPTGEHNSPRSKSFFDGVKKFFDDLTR
Chain of DnaK (P0A6Y8 2-638): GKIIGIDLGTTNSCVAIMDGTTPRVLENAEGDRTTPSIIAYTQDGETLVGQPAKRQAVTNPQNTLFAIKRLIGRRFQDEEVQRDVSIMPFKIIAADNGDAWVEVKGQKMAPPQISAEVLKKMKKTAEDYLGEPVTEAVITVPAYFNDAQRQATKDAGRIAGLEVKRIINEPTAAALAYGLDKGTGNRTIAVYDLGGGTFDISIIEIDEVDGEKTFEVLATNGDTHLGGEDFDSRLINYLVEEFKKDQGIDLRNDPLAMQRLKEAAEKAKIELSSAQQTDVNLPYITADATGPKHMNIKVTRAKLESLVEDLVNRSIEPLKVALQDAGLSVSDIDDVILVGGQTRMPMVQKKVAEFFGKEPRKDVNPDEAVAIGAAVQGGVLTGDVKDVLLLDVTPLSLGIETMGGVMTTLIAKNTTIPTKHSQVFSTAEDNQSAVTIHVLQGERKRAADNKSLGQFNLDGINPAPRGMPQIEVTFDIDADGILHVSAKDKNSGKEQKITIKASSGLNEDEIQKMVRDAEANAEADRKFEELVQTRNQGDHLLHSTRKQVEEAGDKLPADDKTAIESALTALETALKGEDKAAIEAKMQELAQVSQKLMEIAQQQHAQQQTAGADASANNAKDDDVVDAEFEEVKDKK

DnaJ (from UniProt P08622 1-376) (natural protein)
koff [1]: 0.0676 s⁻¹ and 0.0732 s⁻¹ and 0.0522 s⁻¹

Nc1ncnc2c1ncn2[C@@H]1O[C@H](COP(=O)(O)OP(=O)(O)OP(=O)(O)O)[C@@H](O)[C@H]1O [ATP]
Kd [2]: 398 nM

PfHsp40 (natural protein)
kon [3]: 9020 M⁻¹ s⁻¹ and 6170 M⁻¹ s⁻¹ and 7250 M⁻¹ s⁻¹ | koff [4]: 0.0713 s⁻¹ and 0.0396 s⁻¹ and 0.0369 s⁻¹ | kon [5]: 6040 M⁻¹ s⁻¹ and 2200 M⁻¹ s⁻¹ and 6140 M⁻¹ s⁻¹ | koff [6]: 0.0815 s⁻¹ and 0.0866 s⁻¹ and 0.0361 s⁻¹
